Patent US20090042805A1 (CHIESI FARMACEUTICI S P A, published 2009)
* marks the point of attachment. Quinaldoyl = O=C(c1ccc2ccccc2n1)*

T1: Human recombinant caspase-2 (human, UniProt P42575 170-452, limits assumed)
T1 sequence (looked up): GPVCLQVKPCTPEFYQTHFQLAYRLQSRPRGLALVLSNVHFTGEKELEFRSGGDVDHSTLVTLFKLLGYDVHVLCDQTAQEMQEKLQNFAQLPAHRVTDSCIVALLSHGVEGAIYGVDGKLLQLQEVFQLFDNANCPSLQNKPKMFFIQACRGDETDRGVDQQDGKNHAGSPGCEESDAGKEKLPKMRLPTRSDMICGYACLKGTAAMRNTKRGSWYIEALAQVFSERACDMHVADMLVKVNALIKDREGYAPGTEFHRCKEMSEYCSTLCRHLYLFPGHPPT

T2: Human recombinant caspase-6 (human, UniProt P55212 24-293, limits assumed)
T2 sequence (looked up): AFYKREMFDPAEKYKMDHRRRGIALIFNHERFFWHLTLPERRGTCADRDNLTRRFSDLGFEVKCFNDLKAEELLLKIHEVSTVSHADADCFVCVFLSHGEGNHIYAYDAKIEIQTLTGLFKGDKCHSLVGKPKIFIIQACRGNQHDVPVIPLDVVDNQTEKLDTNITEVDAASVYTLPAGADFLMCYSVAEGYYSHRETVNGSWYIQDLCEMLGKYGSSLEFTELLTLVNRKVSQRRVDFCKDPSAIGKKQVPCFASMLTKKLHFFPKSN

B1: Ac-LDEGD-cho (peptide)
peptide: Ac-LDEGD-aldehyde
SMILES: CC(=O)N[C@@H](CC(C)C)C(=O)N[C@@H](CC(=O)O)C(=O)N[C@@H](CCC(=O)O)C(=O)NCC(=O)N[C@H](C=O)CC(=O)O
B2: Ac-LDESD-cho (peptide)
peptide: Ac-LDESD-aldehyde
SMILES: CC(=O)N[C@@H](CC(C)C)C(=O)N[C@@H](CC(=O)O)C(=O)N[C@@H](CCC(=O)O)C(=O)N[C@@H](CO)C(=O)N[C@H](C=O)CC(=O)O
B3: Ac-LDEAD-cho (peptide)
peptide: Ac-LDEAD-aldehyde
SMILES: CC(=O)N[C@@H](CC(C)C)C(=O)N[C@@H](CC(=O)O)C(=O)N[C@@H](CCC(=O)O)C(=O)N[C@@H](C)C(=O)N[C@H](C=O)CC(=O)O
B4: Ac-LDEKD-cho (peptide)
peptide: Ac-LDEKD-aldehyde
SMILES: CC(=O)N[C@@H](CC(C)C)C(=O)N[C@@H](CC(=O)O)C(=O)N[C@@H](CCC(=O)O)C(=O)N[C@@H](CCCCN)C(=O)N[C@H](C=O)CC(=O)O
B5: Ac-FDESD-cho (peptide)
peptide: Ac-FDESD-aldehyde
SMILES: CC(=O)N[C@@H](Cc1ccccc1)C(=O)N[C@@H](CC(=O)O)C(=O)N[C@@H](CCC(=O)O)C(=O)N[C@@H](CO)C(=O)N[C@H](C=O)CC(=O)O
B6: Ac-VDESD-cho (peptide)
peptide: Ac-VDESD-aldehyde
SMILES: CC(=O)N[C@H](C(=O)N[C@@H](CC(=O)O)C(=O)N[C@@H](CCC(=O)O)C(=O)N[C@@H](CO)C(=O)N[C@H](C=O)CC(=O)O)C(C)C
B7: Ac-VDEAD-cho (peptide)
peptide: Ac-VDEAD-aldehyde
SMILES: CC(=O)N[C@H](C(=O)N[C@@H](CC(=O)O)C(=O)N[C@@H](CCC(=O)O)C(=O)N[C@@H](C)C(=O)N[C@H](C=O)CC(=O)O)C(C)C

Biological target: T1, Human recombinant caspase-2
Assay: cell-based or functional assay

Row | Binder | IC50 (nM), inhibition of Ac-VDVAD-AMC cleavage by human recombinant caspase-2 [nM]
1 | B1 | 430
2 | B2 | 300
3 | B3 | 85
4 | B4 | 300
5 | B5 | 800
6 | B6 | 175
7 | Ac-VDEGD-aldehyde [VDEGD pentapeptidic-based inhibitor] | 260
8 | Ac-VDVAD-aldehyde [Ac-VDVAD-cho] | 75
9 | B7 | 85

Biological target: T2, Human recombinant caspase-6
Assay: cell-based or functional assay

Row | Binder | IC50, inhibition of Ac-VEID-AMC cleavage by human recombinant caspase-6 [nM]
10 | B3 | ~2000

Biological target: T1, Human recombinant caspase-2
Assay: cell-based or functional assay
Remark: another data set of the same source

Row | Binder | IC50, inhibition of caspase-2 [nM]
11 | Quinaldoyl-VDVAD-{CH2O(2,6-difluorophenyl)} [Qco-VDVAD-CH2O(2,6-difluorophenyl)] | 80
